From US11220682B2 (SOGANG UNIVERSITY RESEARCH & BUSINESS DEVELOPMENT FOUNDATION, priority 2017, dated 2022) come the findings set out here.

Assay type in all cases: cell-based, E. coli
For data set [1], the system named is bacterial cell growth. The experiment in a line: Bacterial cell growth / cell density in growth medium.
Protocol: The starter culture (2 mL) was transferred to a limiting medium (100 mL) (50 mM Na2HPO4, 50 mM KH2PO4, 50 mM (NH4)2504, 2 mM MgSO4, 0.1% trace metals, 0.5% glycerol, 0.05% glucose, and 5% amino acids, and pH 7.25) supplemented with ampicillin (100 μg/mL), chloramphenicol (35 μg/mL), 100 μM pyruvate, 10 mM catechol, and 300 μM DTT at 30° C. Protein expression was induced by adding 0.2% L-arabinose when the optical density reached 0.8, and the culture was cultured overnight at 30° C.
A simple solution was to maximize the concentrations of catechol, pyruvate, and ammonia in a growth medium. […] In the growth medium, 50 mM pyruvate and 25 mM ammonia were added as starting materials together with various concentrations (0 mM to 10 mM) catechol.
Data set [2] has as its system emGFP-E90DOPA. The experiment in a line: MALDI-TOF MS analysis of tryptic digest of emGFP-E90DOPA, specificity of incorporation. The conditions noted are these: 3 mM L-DOPA, position 90. The source says:
A wild-type emGFP gene was obtained from commercially available sources by gene synthesis, amplified by PCR, and inserted between the BspHI and KpnI sites of pBAD/Myc-His (Invitrogen) to generate pBAD-emGFP (SEQ ID NO: 10). An amber codon (TAG) was incorporated at position 39 or 90 in the emGFP by site-specific mutants. A plasmid containing each amber codon was incorporated into E. coli DH10 used as a prokaryote host cell with pEvol-DOPA-RS1 (SEQ ID NO: 6), pEvol-DOPA-RS2 (SEQ ID NO: 7), or pEvol-DOPA-RS (SEQ ID NO: 8) to co-transform the E. coli DH10 (Comparative Example 1: […], Example 1: DOPA-RS1, Example 2: DOPA-RS2). Cells were amplified in an LB medium (lysogeny broth) supplemented with ampicillin (100 μg/mL) and chloramphenicol (35 μg/mL). […] Protein expression was induced by adding 0.2% L-arabinose when the optical density reached 0.8, and the culture was cultured overnight at 37° C. […] Protein concentrations were calculated by measuring absorbance at 280 nm and using the calculated extinction coefficient (2.2×10^4 cm^−1M^−1 for emGFP). […]
In order to express an emGFP-E90DOPA mutant, the expressed protein was purified, followed by tryptic degradation and then evaluated by MALDI-TOF (matrix-assisted laser desorption/ionization-time of flight) MS analysis (FIG. 2). […]

The test system of data set [3] is emGFP containing an amber mutation (TAG) at position 39 or 90. Description: emGFP fluorescence from cytolysate, efficiency of genetic incorporation of L-DOPA. The conditions noted are these: all L-DOPA concentrations (1 mM to 3 mM), positions 39 and 90 of emGFP. The text has this:
A wild-type emGFP gene was obtained from commercially available sources by gene synthesis, amplified by PCR, and inserted between the BspHI and KpnI sites of pBAD/Myc-His (Invitrogen) to generate pBAD-emGFP (SEQ ID NO: 10). An amber codon (TAG) was incorporated at position 39 or 90 in the emGFP by site-specific mutants. A plasmid containing each amber codon was incorporated into E. coli DH10 used as a prokaryote host cell with pEvol-DOPA-RS1 (SEQ ID NO: 6), pEvol-DOPA-RS2 (SEQ ID NO: 7), or pEvol-DOPA-RS (SEQ ID NO: 8) to co-transform the E. coli DH10 (Comparative Example 1: […], Example 1: DOPA-RS1, Example 2: DOPA-RS2). Cells were amplified in an LB medium (lysogeny broth) supplemented with ampicillin (100 μg/mL) and chloramphenicol (35 μg/mL). […] Protein concentrations were calculated by measuring absorbance at 280 nm and using the calculated extinction coefficient (2.2×10^4 cm^−1M^−1 for emGFP).
Cells (2×10^9) were harvested by centrifugation at 10,000 rpm and 4° C. for 5 minutes, and cell pellets were lysed for 1 hour with Bugbuster (Novagen) (50 μL) supplemented with benzonase (Sigma) ([…]). The cytolysate was removed by centrifugation at 13,000 rpm and 4° C. for 10 minutes, and the supernatant was directly used for fluorescence measurement. Fluorescence was measured at 510 nm with excitation at 487 nm. […]

Changes are numbered by the printed parent chain.

`Oc1ccccc1O` [catechol]: in data set [1] (10 mM catechol), the toxicity result is given as “a reasonable toxicity was observed”. The “concentration that inhibited bacterial cell growth” value in data set [1] (preliminary test, growth medium) is on record as “more than 8 mM”.

B1: DOPA-RS2 (protein)
chain: MDEFEMIKRNTSEIISEEELREVLEKDEKSALIGFEPSGKIHLGHYLQIKKMIDLQNAGFDIIILLSDLNAYLNQKGELDEIRKIGDYNKKVFEAMGLKAKYVYGSEFQLDKDYTLNVYRLALKTTLKRARRSMELIAREDENPKVAEVIYPIMQVNDIHYLGVDVLVGGMEQRKIHMLARELLPKKVVCIHNPVLTGLDGEGKMSSSKGNFIAVDDSPEEIRAKIKKAYCPAGVVEGNPIMEIAKYFLEYPLTIKRPEKFGGDLTVNSYEELESLFKNKELHPMDLKNAVAEELIKILEPIRKRL
modifications: Artificial DOPA_RS-2 Sequence
For B1, in data set [2], the incorporation of tyrosine entry was “not detected”. Besides, the “efficiency in incorporation of L-DOPA (emGFP expression), rank order” value in data set [3] is “DOPA-RS2>DOPA-RS1>DOPA-RS”.

B2: DOPA-RS1 (protein)
chain: B1 chain with L167N
modifications: Artificial DOPA_RS-1 Sequence
Take B2: the incorporation of tyrosine result in data set [2] is “not detected”. Also, the “efficiency in incorporation of L-DOPA (emGFP expression), rank order” value in data set [3] is listed as “DOPA-RS2>DOPA-RS1>DOPA-RS”.
